# Laboratory results published in patent US20260008815A1, “CYCLIC PEPTIDE OR SALT THEREOF, AND USES THEREOF” (FUJIFILM Corporation, priority 2023, published 2026).
# Numbered stars: 1 amine (or outer) side, 2 acyl side, 3 side chain; on linkers, the order of the positions; unused ones are H or OH. Bridge positions count the residues as written; N and C are the ends. Ends that are not written are not given here. acetyl = acetyl (haloacetyl before ring closure) on the side-chain amine, O=C(C[*:1])[*:2]; COCH2 = acetyl group that carries the bridge
# Target: T1, Recombinant Human FGFR2 alpha (IIIc) Fc Chimera Protein (Homo sapiens, UniProt P21802)
# T1 construct: Fc (chimera); purchased R&D systems 712-FR-050
# Test: ELISA binding affinity of enzymatically synthesized peptide to FGFR
# Conditions: ELISA luminescence signal at 10 nmol/L peptide, SEQ ID NO: 47 at 10 nmol/L standardized to 1; enzyme synthesis product
# Procedure: The binding affinity of the peptide to FGFR was evaluated using an ELISA method.
# The binding affinity of the enzymatically synthesized peptide to FGFR was measured by evaluating the amount of the peptide bound to FGFR by ELISA.
# First, 5 ng of Recombinant Human FGFR2 alpha (IIIc) Fc Chimera Protein (R&D systems, 712-FR-050) was immobilized in each well of a 96-well plate, and blocked with Pierce Protein-Free (PBS) Blocking Buffer (Thermo, 37572), and a peptide diluted with Can Get Signal Immunoreaction Enhancer Solution I (TOYOBO, NKB-101) was then added and reacted at room temperature for 3 hours. After washing with 0.05% Tween 20-containing phosphate buffered saline (PBS), an anti-Myc antibody (Cell Signaling, 14038S) diluted with Can Get Signal Immunoreaction Enhancer Solution II (TOYOBO, NKB-101) was added and reacted at room temperature for 2 hours. After washing with 0.05% Tween 20-containing PBS, SuperSignal ELISA Femto Substrate (Thermo, 37075) was added, and the luminescence amount was measured. The dose-response relationship was calculated from using the difference between the luminescence amount in the well in which FGFR was immobilized and the luminescence amount in the well in which FGFR was not immobilized, and the concentration of the peptide at the time of reaction, and the binding affinity to FGFR was evaluated according to the following evaluation criteria. The evaluation result preferably satisfies the evaluation criteria A, B, or C.
# In a case where a value of a luminescence signal emitted by the cyclic peptide set forth in SEQ ID NO: 47 at a reaction concentration of 10 nmol/L is standardized to 1, evaluation criteria of the luminescence signal value emitted by the cyclic peptide at a reaction concentration of 10 nmol/L is as follows. • A: 0.7 or more • B: 0.5 or more and less than 0.7 • C: 0.1 or more and less than 0.5 • D: less than 0.1.
# T1 sequence (P21802 with tags, fused parts or gaps limits assumed): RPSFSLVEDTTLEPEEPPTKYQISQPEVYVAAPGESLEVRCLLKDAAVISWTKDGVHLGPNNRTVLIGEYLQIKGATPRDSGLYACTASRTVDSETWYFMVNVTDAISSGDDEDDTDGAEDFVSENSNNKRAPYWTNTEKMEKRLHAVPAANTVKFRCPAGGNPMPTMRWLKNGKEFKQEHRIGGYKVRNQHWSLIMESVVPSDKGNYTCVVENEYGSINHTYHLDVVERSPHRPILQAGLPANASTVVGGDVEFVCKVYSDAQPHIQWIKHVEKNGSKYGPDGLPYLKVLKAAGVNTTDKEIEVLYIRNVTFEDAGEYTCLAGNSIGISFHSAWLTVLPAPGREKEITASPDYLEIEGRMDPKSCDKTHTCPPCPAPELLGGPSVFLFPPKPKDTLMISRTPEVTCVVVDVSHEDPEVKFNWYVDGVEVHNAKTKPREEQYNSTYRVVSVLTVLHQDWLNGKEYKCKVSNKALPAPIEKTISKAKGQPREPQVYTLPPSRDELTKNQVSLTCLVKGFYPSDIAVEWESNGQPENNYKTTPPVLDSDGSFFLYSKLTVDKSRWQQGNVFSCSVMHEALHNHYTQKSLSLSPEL
row,Molecule,Evaluation result of binding affinity to FGFR
1,34 (CRALLRGAPFHLAEC; disulfide 1-15) [compound 34],D (less than 0.1)
2,"35 (YRSRKYSSWYVALKR; also: cyclic peptide, ring not given here) [compound 35]",D (less than 0.1)
3,36 (CRALLRGAPFHLAEK(COCH2); thioether 1-15) [compound 36],D (less than 0.1)
4,37 (QCQLNYWDDLQFTYYLQYK(COCH2)V; thioether 2-19) [compound 37],A (0.7 or more)
5,38 (QCSYLYQYVFERYKVTVPK(COCH2)D; thioether 2-19 (inferred)) [compound 38],A (0.7 or more)
6,39 (QCENWLSQDQWKYFWQYK(COCH2)I; thioether 2-18 (inferred)) [compound 39],A (0.7 or more)
7,40 (DCSGNFFSKEQFHYLELFK(COCH2)K; thioether 2-19 (inferred)) [compound 40],A (0.7 or more)
8,41 (LCGNYITPLQWKYFQTYK(COCH2)W; thioether 2-18 (inferred)) [compound 41],A (0.7 or more)
9,42 (QCYFLSQYILERYKVHK(COCH2)L; thioether 2-17 via acetyl) [compound 42],A (0.7 or more)
10,43 (HCNANFVYQQQYLYLLQYK(COCH2)L; thioether 2-19 via acetyl) [compound 43],B (0.5 or more and less than 0.7)
11,44 (ACEYNYWNQVQFTFLIAFK(COCH2)R; thioether 2-19 via acetyl) [compound 44],B (0.5 or more and less than 0.7)
12,45 (TCPQNFRDELQFTYFTQYKY; Description of Artificial Sequence: Cyclic peptide) [compound 45],A (0.7 or more)
13,46 (SCIQQNYFWQYVFERYRYKQ; Description of Artificial Sequence: Cyclic peptide) [compound 46],B (0.5 or more and less than 0.7)
14,47 (KCPQNFINPVQWRYFQHYKN; not fully specified; Description of Artificial Sequence: Cyclic peptide) [compound 47],A (0.7 or more)
15,48 (GCYWNEVQYYYLQQYKQ; Description of Artificial Sequence: Cyclic peptide) [compound 48],A (0.7 or more)
16,49 (SCQGNWISNTQFRYFIAYK(COCH2)T; thioether 2-19; not fully specified (residue 1); printed as s-(C)-QGNWISNTQFRYFIAY-(K(acetyl))-T) [compound 49],A (0.7 or more)
17,50 (ACGQNFYHPVQFHYFIAYKQ; Description of Artificial Sequence: Cyclic peptide) [compound 50],A (0.7 or more)

# Now from value to molecule:
row,Evaluation result of binding affinity to FGFR,Molecule
1,A (0.7 or more),51 (VCHSNFLSAVQYAYFYQYKH; Description of Artificial Sequence: Cyclic peptide) [compound 51]
2,C (0.1 or more and less than 0.5),52 (VCNENNWSRSQYHFFLQYKY; Description of Artificial Sequence: Cyclic peptide) [compound 52]
3,A (0.7 or more),53 (ACPQNFINPVQWRYFQHYKN; not fully specified; Description of Artificial Sequence: Cyclic peptide) [compound 53]
4,A (0.7 or more),54 (KCAQNFINPVQWRYFQHYKN; Description of Artificial Sequence: Cyclic peptide) [compound 54]
5,A (0.7 or more),55 (KCPANFINPVQWRYFQHYK(COCH2)N; thioether 2-19 (inferred)) [compound 55]
6,C (0.1 or more and less than 0.5),56 (KCPQAFINPVQWRYFQHYK(COCH2)N; thioether 2-19 (inferred)) [compound 56]
7,B (0.5 or more and less than 0.7),57 (KCPQNAINPVQWRYFQHYK(COCH2)N; thioether 2-19 (inferred)) [compound 57]

# Target: T2, Recombinant Human FGFR2 alpha (IIIc) Fc Chimera Protein, CF (R&D systems, 712-FR-050) (human, UniProt P21802 22-377)
# T2 construct: bought; not shown: Fc part of the chimera
# Test: ELISA on plate-bound FGFR2-Fc
# Conditions: not given
# Outline: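 Plate-immobilized FGFR2 alpha (IIIc)-Fc (5 ng/well) incubated with peptide 3 h at room temperature, then anti-Myc antibody 2 h and chemiluminescent ELISA substrate. Signal corrected by subtracting FGFR-free wells; binding affinity scored into categories from the dose-response.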
# T2 sequence (P21802 22-377, change not shown): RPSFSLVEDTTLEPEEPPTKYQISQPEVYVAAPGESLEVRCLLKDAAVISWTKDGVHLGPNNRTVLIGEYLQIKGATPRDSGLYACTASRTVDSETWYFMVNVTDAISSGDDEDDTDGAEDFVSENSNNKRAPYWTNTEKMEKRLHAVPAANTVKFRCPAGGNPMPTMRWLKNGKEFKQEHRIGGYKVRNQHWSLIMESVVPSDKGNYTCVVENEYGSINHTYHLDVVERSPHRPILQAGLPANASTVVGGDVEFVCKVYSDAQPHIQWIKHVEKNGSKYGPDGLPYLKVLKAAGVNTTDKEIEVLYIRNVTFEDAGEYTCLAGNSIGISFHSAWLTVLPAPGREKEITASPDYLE
row,"ELISA luminescence signal at 10 nmol/L peptide, relative to SEQ ID NO: 47 (=1) [ratio]",Molecule
1,≥ 0.7,PCVQNYFNDLQWIFLQHYK(COCH2)R (thioether 2-19) [cyclic peptide SEQ ID NO: 128]
2,< 0.1,YRSRKYSSWYVALKR (not fully specified) [linear peptide SEQ ID NO: 35]
3,≥ 0.7,ECPWNFVNQLQWQYFITYK(COCH2)V (thioether 2-19) [cyclic peptide SEQ ID NO: 129]
4,0.1 to 0.5,DCRDLQLFYIYQYLDALKK (not fully specified; thioether ring (C)-(K(acetyl))) [cyclic peptide SEQ ID NO: 124]
5,0.5 to 0.7,QCENWVNSTQFEFFWQYK(COCH2)T (thioether 2-18) [cyclic peptide SEQ ID NO: 122]
6,< 0.1,"CRALLRGAPFHLAEC (disulfide 1-15, also called cyclic peptide reported in WO2000/003245A) [cyclic peptide SEQ ID NO: 34]"
7,< 0.1,CRALLRGAPFHLAEK(COCH2) (thioether 1-15) [cyclic peptide SEQ ID NO: 36]
8,≥ 0.7,QCQNFITEVQFTYFWHYK(COCH2)T (thioether 2-18) [cyclic peptide SEQ ID NO: 123]
9,≥ 0.7,LCEINWLSQEQYGYFIEYK(COCH2)T (thioether 2-19) [cyclic peptide SEQ ID NO: 126]
10,≥ 0.7,HCDGNWWNSQQFFYLLLYK(COCH2)H (thioether 2-19) [cyclic peptide SEQ ID NO: 130]
11,≥ 0.7,YCPYNFYNIIQFHYFLTYK(COCH2)T (thioether 2-19) [cyclic peptide SEQ ID NO: 127]
12,≥ 0.7,YCRDNYFYLEQWQYLYLYK(COCH2)H (thioether 2-19) [cyclic peptide SEQ ID NO: 125]
13,≥ 0.7,ECQENFVDRQQYWYFLSYK(COCH2)F (thioether 2-19) [cyclic peptide SEQ ID NO: 132]
14,≥ 0.7,DCYWDDQQYSFLQLYK(COCH2)R (thioether 2-16) [cyclic peptide SEQ ID NO: 121]
15,≥ 0.7,QCYFLSQYILERYKVHK(COCH2)L (thioether 2-17) [cyclic peptide SEQ ID NO: 42]
